One substance from US20210347846A1 can be followed below.

Experiment [1] concerns the target transient receptor potential melastatin subfamily member 4 (TRPM4), mouse (mouse) (UniProt Q7TN37). In words: co-immunoprecipitation with anti-TRPM4 antibody from cortical lysates of mice 2 h after i.p. injection of small-molecule compound P4 (40 mg/kg), against control mice.
The target is the same in experiment [2]. In words: co-immunoprecipitation with anti-TRPM4 antibody from cortical lysates of mice 6 h after i.p. injection of small-molecule compound P4 (40 mg/kg), against control mice.

Chain of UniProt Q7TN37 (Q7TN37 whole entry): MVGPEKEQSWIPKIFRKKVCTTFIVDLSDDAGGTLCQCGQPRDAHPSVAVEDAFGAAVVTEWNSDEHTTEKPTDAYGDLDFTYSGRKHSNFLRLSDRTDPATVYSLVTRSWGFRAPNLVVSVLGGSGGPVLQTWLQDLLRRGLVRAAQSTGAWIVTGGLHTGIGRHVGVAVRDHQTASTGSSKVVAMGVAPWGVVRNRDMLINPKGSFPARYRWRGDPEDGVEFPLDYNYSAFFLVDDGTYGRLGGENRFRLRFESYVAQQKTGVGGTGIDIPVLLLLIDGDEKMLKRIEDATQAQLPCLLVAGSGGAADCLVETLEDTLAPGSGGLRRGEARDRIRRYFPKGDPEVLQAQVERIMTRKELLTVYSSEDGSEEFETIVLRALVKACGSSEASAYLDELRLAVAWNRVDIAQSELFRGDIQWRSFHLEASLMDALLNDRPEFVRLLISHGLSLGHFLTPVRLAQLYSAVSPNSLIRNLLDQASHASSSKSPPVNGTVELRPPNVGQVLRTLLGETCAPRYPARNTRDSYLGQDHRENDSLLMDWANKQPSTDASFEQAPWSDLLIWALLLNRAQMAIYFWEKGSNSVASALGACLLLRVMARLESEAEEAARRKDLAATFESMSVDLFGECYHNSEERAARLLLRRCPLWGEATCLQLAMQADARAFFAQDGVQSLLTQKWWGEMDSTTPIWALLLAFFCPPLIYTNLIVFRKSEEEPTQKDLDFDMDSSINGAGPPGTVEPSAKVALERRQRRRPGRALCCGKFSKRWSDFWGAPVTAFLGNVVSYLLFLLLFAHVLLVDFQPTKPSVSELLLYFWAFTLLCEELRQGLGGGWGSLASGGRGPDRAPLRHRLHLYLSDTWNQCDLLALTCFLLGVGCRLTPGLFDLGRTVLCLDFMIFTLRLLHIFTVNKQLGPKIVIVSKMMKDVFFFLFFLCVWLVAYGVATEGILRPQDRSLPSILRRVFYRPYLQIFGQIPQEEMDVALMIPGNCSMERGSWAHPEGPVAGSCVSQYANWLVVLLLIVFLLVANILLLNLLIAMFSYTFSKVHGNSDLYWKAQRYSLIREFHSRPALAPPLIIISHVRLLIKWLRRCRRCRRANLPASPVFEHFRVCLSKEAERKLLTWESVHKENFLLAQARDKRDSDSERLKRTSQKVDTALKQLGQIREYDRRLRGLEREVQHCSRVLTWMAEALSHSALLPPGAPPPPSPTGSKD

For the substance “GRIN2B subunit of the NMDA receptor, mouse (from UniProt Q01097 27-1482)”, the reduction in NMDA receptor/TRPM4 complex formation worked out at 51% in experiment [1] and 61% in experiment [2].
